Among the data in patent US20220259593A1, “CONTROL OF MAMMALIAN GENE DOSAGE USING CRISPR” (The Regents of the University of California, priority 2019, published 2022) are Mean relative activity values, retold here.

The data set concerns K562 CRISPRi cells. In words: Constant region variant library pooled growth screen, K562. Format: cell-based, human. The settings on record: sgRNA constant region variants, un-modified constant region cr995. In a few lines: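 Growth screens in K562 CRISPRi cells were harvested 4-8 days post-selection at >2000× library coverage. Each variant's phenotype was referenced to the unmodified constant region with the same targeting sequence.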

The mark [1] stands for this setting: relative to the original, CRISPRi.
[2] abbreviates: activity relative to the original.

B1: cr758 (nucleic acid)
guide: GTTTAAGAGCTAAGCTGGAAACAGCATAGCAAGCTTAAATAAGGCTAGTCCGCTATCAACTTGAAAAAGTGGCACCGAGTCGGTGCT
modifications: listed as DNA, chemistry not fully specified
As to B1, under setting [1], the Mean relative activity turned out to be 0.4614.

B2: cr566 (nucleic acid)
guide: GTTTAAGAGCTAAGCTGGAAACAGCATAGCAAGCTTAAATAAGGCTAGTCCGTTATCAACATGAAAATGTGGCACCGAGTCGGTGCT
modifications: listed as DNA, chemistry not fully specified
The molecule B2 came in with a Mean relative activity under setting [1] of 0.4299.

B3: cr171 (nucleic acid)
guide: GTTTAAGAGCTAAGCTGGAAACAGCATAGCAAGTTTAAATAAGGCTAGTCCGTTATCAACCTGAGAAGGTGGCACCGAGTCGGTGCT
modifications: listed as DNA, chemistry not fully specified
Under setting [2], B3 registered a Mean relative activity of 1.044.

B4: cr485 (nucleic acid)
guide: GTTTAAGAGCTAAGCTGGAAACAGCATAGCAAGTTTAAATAAGGCTTGTCCGTTATCAACTTGAAAAAGTTGCACCGTGTCGGTGCT
modifications: listed as DNA, chemistry not fully specified
In turn, B4 yielded a Mean relative activity under setting [1] of 0.4419.

B5: cr873 (nucleic acid)
guide: GTTTAAGAGCTAAGCTGGAAACAGCATAGCAAGCTTAAATAAGGCTAGTCCGTTATCAACTAGAAATAGTGGCACCGAGTCGGTGCT
modifications: listed as DNA, chemistry not fully specified
B5 displayed a Mean relative activity under setting [1] of 0.4546.

B6: cr318 (nucleic acid)
guide: GTTTAAGAGCTAAGCTGGAAACAGCATAGCAAGTTTAAATATGGCTAGTCCGTTATCAACTTGATAAAGTGGCACCGAGTCGGTGCT
modifications: listed as DNA, chemistry not fully specified
Consider B6, for which, under setting [1], the Mean relative activity was 0.4269.

B7: cr040 (nucleic acid)
guide: ATTTACGAGCTAAGCTGGAAACAGCATAGCAAGTTTAAATAAGGCTAGTCCGTTATCAACTTGAAAAAGTGGCACCGAGTCGGTGCT
modifications: listed as DNA, chemistry not fully specified
B7 registered a Mean relative activity under setting [1] of 0.4233.

B8: cr385 (nucleic acid)
guide: GTTTAAGAGCTAAGCTGGAAACAGCATAGCAAGTTTAAATAAGGCTAGTCCGTTATCAACTTGAAAAAGTGGCCACCAGTGGTGGCT
modifications: listed as DNA, chemistry not fully specified
Under setting [1], B8 had a Mean relative activity of 0.4186.

B9: cr486 (nucleic acid)
guide: GTTTAAGAGCTAAGCTGGAAACAGCATAGCAAGTTTAAATAAGGCTAGTCCGTTATCAACTTGAAAAAGTGAAACTGAGTCAGTTTT
modifications: listed as DNA, chemistry not fully specified
B9: under setting [1], the Mean relative activity is 0.4409.

B10: cr405 (nucleic acid)
guide: GTTTAAGAGCTAAGCTGGAAACAGCATAGCAAGTTTAAATAAGGCTAGTCCGTTATCAACTTGAAAAAGTGTCAGCAAGTTGCTGAT
modifications: listed as DNA, chemistry not fully specified
In the case of B10, the Mean relative activity under setting [1] is 0.4582.

B11: cr868 (nucleic acid)
guide: GTTTAAGAGCTAAGCTGGAAACAGCATAGCAAGTTCAAATAAGGCTAGTCCGTTATCAACTTGAAAAAGTGGCACCGAGTCGGTGCT
modifications: listed as DNA, chemistry not fully specified
Molecule B11 displayed a Mean relative activity under setting [1] of 0.4517.

B12: cr809 (nucleic acid)
guide: GTTTAAGAGCTAAGCTGGAAACAGCATAGCAAGTTTAAATAAGGCTAGTCCGTTATCAACGTGAAAACGTGGAACCGAGTCGGTTCT
modifications: listed as DNA, chemistry not fully specified
As to B12, the Mean relative activity under setting [2] is reported as 1.042.

B13: cr736 (nucleic acid)
guide: GTTTAAGAGCTAAGCTGGAAACAGCATAGCAAGATTAAATAAGGCTAGTCCGTTATCAACTTGAAAAAGTGGCACCGAGTCGGTGCA
modifications: listed as DNA, chemistry not fully specified
With B13, under setting [1], the Mean relative activity worked out at 0.4208.

B14: cr920 (nucleic acid)
guide: GTTTAAGAGCTAAGCTGGAAACAGCATAGCAAGTTTAAATAAGGCTAGTCCGTTGACTACTTGAAAAAGTGGCACCGAGTCGGTGCT
modifications: listed as DNA, chemistry not fully specified
Turning to B14, the Mean relative activity under setting [1] stood at 0.4567.

B15: cr425 (nucleic acid)
guide: GTTTAAGAGCTAAGCTGGAAACAGCATAGCAAGTTTAAATAAGGCTAGTCCGTTATCATCCTGAAAATGCGGCACCGAGTCGGTGCT
modifications: listed as DNA, chemistry not fully specified
With B15, the Mean relative activity under setting [1] was 0.4409.

B16: cr668 (nucleic acid)
guide: GTTTAAGAGCTAAGCTGGAAACAGCATAGCAAGTTTAAATAAGGCTAGTCCGTTATCAAGTTGAAAAAGTGGCACCGAGTCGGTGCT
modifications: listed as DNA, chemistry not fully specified
Under setting [1], B16 yielded a Mean relative activity of 0.4445.

B17: cr866 (nucleic acid)
guide: GTTTAAGAGCTAAGCTGGAAACAGCATAGCAAGTTTAAATAAGGCTAGTCCGTTATCAACTTGAAAAAGTGTCCCCGAGTCGGTGCT
modifications: listed as DNA, chemistry not fully specified
For B17, the Mean relative activity under setting [1] was 0.4434.

B18: cr165 (nucleic acid)
guide: GTTTAAGAGCTAAGCTGGAAACAGCATAGCAAGTTTAAATAAAGCTAGTCTGTTATCAACTCGAAAGAGTGTCACCGAGTCGGTGAT
modifications: listed as DNA, chemistry not fully specified
As to B18, the Mean relative activity under setting [1] came out at 0.4224.

B19: cr460 (nucleic acid)
guide: GTTTAAGAGCTAAGCTGGAAACAGCATAGCAAGTTTAAATAAGGGTACTCCGTTATCAACTTGAAAAAGTGGCTCAGAGTCTGAGCT
modifications: listed as DNA, chemistry not fully specified
Regarding B19, the Mean relative activity under setting [1] was 0.4381.

B20: cr148 (nucleic acid)
guide: GTTTAAGAGCTAAGCTGGAAACAGCATAGCAAGCTTAAATAAGGCTAGTCCGTTATCAACTTGAAAAAGTGGCGCCGAGTCGGCGCT
modifications: listed as DNA, chemistry not fully specified
B20: the Mean relative activity under setting [1] came to 0.4276.

B21: cr772 (nucleic acid)
guide: GTTTAAGAGCTAAGCTGGAAACAGCATAGCAAGTTTAAATAAGGCTAGTCCGTTATCAACTCGAAAGAGTGGCACCGAGTCGGTGCT
modifications: listed as DNA, chemistry not fully specified
For B21, the Mean relative activity under setting [2] is recorded as 1.099.

B22: cr955 (nucleic acid)
guide: GTTTAAGAGCTAAGCTGGAAACAGCATAGCAAGTTTAAATAAGGCTAATCCGTTATCAACTTGAAAAAGTGGCACCGAGTCGGTGCT
modifications: listed as DNA, chemistry not fully specified
B22: under setting [1], the Mean relative activity amounted to 0.4541.
